Experimental findings from patent publication US20220041752A1 (Bayer, published 2022) are described below.

For test [1], the target named is human tissue factor pathway inhibitor (TFPI) (human) (UniProt P10646). In words: SPR (Biacore) blocking assay: human TFPI immobilised on a CM5 chip, control Fab at 1 ug/ml injected before 5 ug/mL FXa; this bar is the reference set to 100% by definition, so FXa binding is not reduced. In general terms: SPR reads the build-up and loss of mass on a sensor chip optically.

For test [2] the target is unchanged. In words: SPR (Biacore) blocking assay: human TFPI immobilised on a CM5 chip, control Fab at 1 ug/ml injected before 5 ug/mL FVIIa/TF complex; this bar is the reference set to 100% by definition, so FVIIa/TF binding is not reduced.
The target in test [3] is T1, human tissue factor pathway inhibitor (TFPI) (human, UniProt P10646 29-304).
T1 construct: also called human TFPI
T1 sequence: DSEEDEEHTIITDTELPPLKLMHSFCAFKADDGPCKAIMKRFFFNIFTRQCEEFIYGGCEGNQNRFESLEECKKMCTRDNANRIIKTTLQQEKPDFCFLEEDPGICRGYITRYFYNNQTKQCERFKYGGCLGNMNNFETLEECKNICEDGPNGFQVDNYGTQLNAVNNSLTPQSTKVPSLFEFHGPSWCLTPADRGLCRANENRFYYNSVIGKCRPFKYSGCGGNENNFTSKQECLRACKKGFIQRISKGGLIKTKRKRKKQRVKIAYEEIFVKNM
In words: assay and TFPI form not stated; reference is the wild type with hc_Asp62.

For test [4], the target named is T1, human tissue factor pathway inhibitor …. In words: assay and TFPI form not stated; reference is the wild type with hc_Lys99.

Take Ctrl Fab: the FXa binding (% of the signal after control Fab) in test [1] amounted to 100%. This molecule showed an FVIIa/TF binding (% of the signal after control Fab) in test [2] of 100%.

B1: Fab A (Fab, V domains shown)
VH: QVQLQQSGPGLVKPSQTLSLTCAISGDSVSSNSAAWSWIRQSPGRGLEWLGIIYKRSKWYNRYAVSVKSRITINPDTSKNQFSLQLNSVTPEDTAVYYCARWHSDKHWGFDYWGQGTLVTVSS
VL: DIVMTQSPLSLPVTPGEPASISCRSSQSLVFSDGNTYLNWYLQKPGQSPQLLIYKGSNRASGVPDRFSGSGSGTDFTLKISRVEAEDVGVYYCQQYDSYPLTFGQGTKVEIKR
notes: Expressed in E. coli; also called monoclonal antibody Fab A
For B1, the “fold affinity increase against wild type (hc_Asp62)” value in test [3] is 120 fold.

B2: Fab B (Fab, V domains shown)
VH: QVELVESGGGLVQPGGSLRLSCAASGFTFRSYGMSWVRQAPGKGLEWVSSIRGSSSSTYYADSVKGRFTISRDNSKNTLYLQMNSLRAEDTAVYYCARLYRYWFDYWGQGTLVTVSS
VL: DIELTQPPSVSVAPGQTARISCSGDNLRNYYAHWYQQKPGQAPVVVIYYDNNRPSGIPERFSGSNSGNTATLTISGTQAEDEADYYCQSWDDGVPVFGGGTKLTVLG
notes: also called monoclonal TFPI antibody Fab B
B2: the “fold affinity increase against wild type (hc_Lys99)” value in test [4] is 20 fold.
